Key:
[1] = molecular target: Cdc20 Cdc20N, 1-170 (UniProt Q12834); assay: Ni2+ bead pull-down, anti-Mad1 blot; details: reference: Mad1E–Mad2 wild type; sites T716
[2] = molecular target: scMad1 CTD (UniProt P40957); assay: ITC; details: reference: pT455 peptide; sites T453
[3] = molecular target: scMad1 CTD (UniProt P40957); assay: peptide-bead pull-down, Coomassie
[4] = molecular target: Mad1 CTD (UniProt Q9Y6D9); assay: ITC; details: reference: pT461 peptide; sites S459
[5] = molecular target: Mad1 CTD (UniProt Q9Y6D9); assay: peptide-bead pull-down, Coomassie

Substance: Mad1 Mad1E (MIM + CTD) (from UniProt Q9Y6D9) Mad1E T716A
- binding against the reference [1]: weaker

Substance: scBub1 449-473 (from UniProt P41695) pT453-pT455 peptide
- binding against the reference [2]: same
- binding against the reference ([3]; reference: pT453 peptide, sites T455): stronger
- binding against the reference ([3]; reference: pT455 peptide, sites T453): same

Substance: Bub1 455-477 (from UniProt O43683) pS459-pT461 peptide
- binding against the reference [4]: stronger
- binding against the reference ([5]; reference: pT461 peptide, sites S459): stronger

Substance: Bub1 455-477 (from UniProt O43683) pS459-pT461-pT464 peptide
- binding against the reference ([5]; reference: pS459-pT461 peptide, sites T464): weaker

Source: PMC5268738, “A sequential multi-target Mps1 phosphorylation cascade promotes spindle checkpoint signaling” (eLife, 2017)
